The EC50 is the concentration at which the effect is half-maximal. Low values mean a more potent agent, high ones a less potent agent.

Experiment [1] concerns the target recombinant FcγRIIA 167H (UniProt P12318). Kind of experiment: SPR; Biacore 8K; biotinylated FcγR immobilised on CAP chip, antibody as analyte in PBS-P+, 30 µL/min; steady state affinity; doses of 22.0405.aF 240-4000 nM for CD32a, 3-200 nM for CD16b; the legend of Supplementary Figure 2 says 'BLI or SPR'. A general note: In SPR one partner is held on a chip, and binding of the other changes the refractive index at the surface.

In experiment [2] the target is recombinant FcγRIIIB (UniProt O75015). The experiment is described as above.
recombinant FcγRIIIB, sequence (O75015 17-200): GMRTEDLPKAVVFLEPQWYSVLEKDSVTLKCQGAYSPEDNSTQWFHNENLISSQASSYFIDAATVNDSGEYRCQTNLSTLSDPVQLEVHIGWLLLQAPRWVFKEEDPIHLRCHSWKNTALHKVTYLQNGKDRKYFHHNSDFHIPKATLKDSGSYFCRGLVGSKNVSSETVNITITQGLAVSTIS
The target of experiment [3] is recombinant FcγRI (UniProt P12314). Kind of experiment: SPR; Biacore 8K; biotinylated FcγR immobilised on CAP chip, antibody as analyte in PBS-P+, 30 µL/min; 1:1 Langmuir fit, KD = koff/kon; doses of 22.0405.aF 8-500 nM for CD64, 31-2000 nM for CD32b; the legend of Supplementary Figure 2 says 'BLI or SPR'.
recombinant FcγRI, sequence (P12314 16-292): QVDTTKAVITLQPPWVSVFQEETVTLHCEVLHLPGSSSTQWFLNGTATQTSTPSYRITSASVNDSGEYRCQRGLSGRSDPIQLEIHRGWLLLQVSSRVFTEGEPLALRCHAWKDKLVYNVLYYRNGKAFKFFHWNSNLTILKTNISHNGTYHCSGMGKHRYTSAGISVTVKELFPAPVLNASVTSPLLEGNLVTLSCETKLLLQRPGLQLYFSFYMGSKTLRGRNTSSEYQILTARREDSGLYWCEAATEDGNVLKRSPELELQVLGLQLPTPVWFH
Experiment [4] has as its target recombinant FcγRII B/C (UniProt P31994). Described as above.
Experiment [5] has as its target recombinant FcγRIIIA (CD16), allotype 158F (UniProt P08637). Kind of experiment: SPR; Biacore 8K; biotinylated recombinant FcγR proteins immobilised on CAP chips; antibodies as analytes in PBS-P+ buffer, 30 μL/min; 1:1 Langmuir model.
The target in experiment [6] is human ROR1 on transfected CHO-K1 cells (CHO-ROR1) (human) (UniProt Q01973).
For experiment [7], the target named is ROR1 endogenously expressed on JeKo-1 cells (human (endogenous in JeKo-1)) (UniProt Q01973).
For experiment [8] the target is unchanged. This is another data set of the same source.
Experiment [9] addresses recombinant FcγRIIIA (CD16), allotype 158V (UniProt P08637). Kind of experiment: SPR; Biacore 8K; biotinylated recombinant FcγR proteins immobilised on CAP chips; antibodies as analytes in PBS-P+ buffer, 30 μL/min; 1:1 Langmuir model.
For experiment [10], the target named is T1, recombinant Kringle (KRD) domain of human ROR1 (Homo sapiens, UniProt Q01973).
T1 construct: ROR1, human, Kringle (KRD) domain; source: bought: Acro Biosystems
Kind of experiment: BLI; Octet RED384; antibodies immobilised on AR2G sensors; dipped in 500 nM recombinant Ig-like, Frizzled or Kringle domain for 150 s, dissociation 200 s. The note with it: both partners purified. On the technique in general: In BLI a coated tip is dipped into the sample, and binding shifts an interference pattern.

For experiment [11], the target named is T2, recombinant Ig-like (IG) domain of human ROR1 (aa 39–151) (Homo sapiens, UniProt Q01973).
T2 construct: ROR1, human, Ig-like domain, aa 39–151; source: bought: Acro Biosystems
The description is as above. The conditions noted are these: both partners purified.

The target in experiment [12] is T3, human ROR2 on transfected CHO-K1 cells (CHO-ROR2) (Homo sapiens, UniProt Q01974).
T3 construct: receptor tyrosine kinase-like orphan receptor 2 (ROR2), human; also called hROR-2; source: CHO-K1 cells, transfected, on cells
Kind of experiment: flow cytometry on cells; antibody titrated on CHO-K1 cells transfected with ROR1, ROR2 or empty vector, or on cells expressing ROR1 endogenously (JeKo-1); 30 min on ice; detected with APC goat anti-human IgG Fcγ. The conditions noted are these: one partner purified. For orientation: Flow cytometry measures light scatter and fluorescence of single cells or particles in a stream.

Experiment [13] deals with T4, human ROR1 on transfected CHO-K1 cells (CHO-ROR1) (Homo sapiens, UniProt Q01973).
T4 construct: receptor tyrosine kinase-like orphan receptor 1 (ROR1), human; also called hROR1; CHO cells overexpressing ROR1; source: CHO-K1 cells, stably transfected, on cells
The experiment is described as above. The conditions noted are these: one partner purified.

Experiment [14] concerns the target T5, recombinant human ROR1/Fc (full-length extracellular domain of ROR1) (Homo sapiens, UniProt Q01973).
T5 construct: receptor tyrosine kinase-like orphan receptor 1 (ROR1), human, full-length extracellular domain; Fitted as a bivalent analyte (1:2 model); also called hROR1; recombinant extracellular part of ROR1; source: bought: R&D Systems
Kind of experiment: BLI; Octet RED384; antibodies captured on FAB2G (anti-hIgG CH1) biosensors at 5 μg/mL; ROR/Fc as analyte 200–3.13 nM in 10× Kinetics Buffer; 200 s association, 500 s dissociation; 1:2 (bivalent analyte) model; apparent KD = koff1/kon1. The conditions noted are these: both partners purified.

For experiment [15], the target named is T6, recombinant mouse ROR1/Fc (Mus musculus, UniProt Q9Z139).
T6 construct: ROR1, mouse; also called mROR1; source: bought: R&D Systems
T6 sequence (Q9Z139 30-406): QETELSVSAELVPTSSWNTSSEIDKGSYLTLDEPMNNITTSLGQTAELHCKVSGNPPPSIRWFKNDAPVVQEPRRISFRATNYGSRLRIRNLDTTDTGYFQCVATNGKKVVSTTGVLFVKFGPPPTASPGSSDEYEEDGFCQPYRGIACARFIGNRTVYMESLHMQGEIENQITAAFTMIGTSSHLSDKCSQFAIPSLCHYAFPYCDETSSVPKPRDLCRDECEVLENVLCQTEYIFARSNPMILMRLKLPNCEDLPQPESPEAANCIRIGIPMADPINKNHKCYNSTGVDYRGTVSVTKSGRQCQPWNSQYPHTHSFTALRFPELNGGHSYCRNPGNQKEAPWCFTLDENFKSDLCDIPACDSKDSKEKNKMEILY
The description is as above. The conditions noted are these: both partners purified.

recombinant FcγRIIIA (CD16), allotype 158F, sequence (P08637 17-208): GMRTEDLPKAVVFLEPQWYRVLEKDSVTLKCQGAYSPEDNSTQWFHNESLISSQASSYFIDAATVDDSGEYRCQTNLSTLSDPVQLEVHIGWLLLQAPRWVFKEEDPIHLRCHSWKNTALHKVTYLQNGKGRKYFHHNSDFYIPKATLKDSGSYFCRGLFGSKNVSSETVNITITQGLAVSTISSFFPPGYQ
recombinant FcγRIIIA (CD16), allotype 158V, sequence (P08637 17-208 F176V): as the sequence (P08637 17-208) above, with F160V counted along it
recombinant FcγRIIA 167H, sequence (P12318 34-217): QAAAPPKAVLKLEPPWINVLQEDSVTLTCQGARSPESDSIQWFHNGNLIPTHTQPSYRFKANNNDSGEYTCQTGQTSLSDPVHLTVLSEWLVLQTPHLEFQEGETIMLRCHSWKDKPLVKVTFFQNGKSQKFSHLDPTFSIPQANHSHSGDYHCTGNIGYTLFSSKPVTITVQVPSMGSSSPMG
recombinant FcγRII B/C, sequence (P31994 43-217): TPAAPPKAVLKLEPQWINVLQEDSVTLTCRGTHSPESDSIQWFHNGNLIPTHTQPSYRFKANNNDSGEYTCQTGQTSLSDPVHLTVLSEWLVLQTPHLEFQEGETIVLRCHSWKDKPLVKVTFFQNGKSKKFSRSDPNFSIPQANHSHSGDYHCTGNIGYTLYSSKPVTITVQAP

Regarding zilovertamab-like antibody, the Kd in experiment [1] was 2200 nM; in experiment [2], over 4000 nM; in [3], 0.054 nM; in [4], over 4000 nM.

For the molecule “zilovertamab-like antibody (anti-ROR1 mAb mimicking zilovertamab, humanized native IgG1)”, the Kd in experiment [5] stood at 3400 nM.

B1: 22.0405.aF (afucosylated form of 22.0405, fully human anti-ROR1 IgG1) (antibody, V domains shown)
VH: EVQLLESGGGLVQPGGSLRLSCAASGFTFHKYGMAWVRQAPGKGLEWVSSIDDRGRYTYYADSVKGRFTISRDNSKNTLYLQMNSLRAEDTAVYYCARGSYIIWSALDYWGQGTLVTVSS
VL: DIQMTQSPSSLSASVGDRVTITCRPNQNIATYINWYQQKPGKAPKLLIYHDNKRPSGVPSRFSGSGSGTDFTLTISSLQPEDFATYYCQQYEKLPWTFGQGTKVEIK
B1 returned an NK cell-mediated ADCC towards Raji cells overexpressing human ROR1 (Raji-ROR1); EC50; no statistically significant ADCC towards wild-type Raji cells in [6] of 0.002 nM. Also, in experiment [7], the tumor cell killing with total PBMCs as effector cells; EC50 was 0.02 nM. For the same molecule, the ADCC by healthy donor NK cells against primary B-CLL cells (65%–99% ROR1-positive); EC50 in experiment [8] is 0.018 nM. The Kd in experiment [5] turned out to be 57 nM.

B2: 22.0405 (native, fucose-containing fully human anti-ROR1 IgG1 mAb) (antibody, V domains shown)
VH: EVQLLESGGGLVQPGGSLRLSCAASGFTFHKYGMAWVRQAPGKGLEWVSSIDDRGRYTYYADSVKGRFTISRDNSKNTLYLQMNSLRAEDTAVYYCARGSYIIWSALDYWGQGTLVTVSS
VL: DIQMTQSPSSLSASVGDRVTITCRPNQNIATYINWYQQKPGKAPKLLIYHDNKRPSGVPSRFSGSGSGTDFTLTISSLQPEDFATYYCQQYEKLPWTFGQGTKVEIK
notes: human IgG1 heavy chain constant region; IgG1; source: CHOK1 cells (BioIntron, China)
On to B2, for which the Kd came to 690 nM in experiment [5], 217 nM in [9], 60 nM in experiment [14] and 240 nM in experiment [15]. The binding result in [10] was “no binding (tested: 500 nM)”; in experiment [11] it was “no binding (tested: 500 nM)”; in experiment [12], “no binding”. Moreover, in [13], the EC50 was found to be 0.56 nM.

For the origin of these results see PMC12753870, “A novel fully human anti-ROR1 antibody PBA-0405 optimized for ADCC, induces potent anti-tumor activity against both solid and hematological malignancies” (Frontiers in Immunology, 2025).
